Data as given in patent US8933202B2, “AXL antibodies” (U3 Pharma GmbH, priority 2007, dated 2015).

Experiments:
p42/p44 MAP-Kinase = p42/p44 MAP-Kinase phosphorylation ELISA; assay type: cell-based, human; settings: 10 μg/ml antibody, 400 ng/ml Gas6; CaSki cervical cancer cells
Procedure: Next, ELISA experiments were performed in order to investigate whether the rat anti-AXL antibodies of the invention are able to block ligand Gas6-mediated activation of p42/p44 MAP-Kinase. Gas6-mediated p42/p44 MAP-Kinase activation was detected by increased protein (Thr202/Tyr204) phosphorylation. In brief, on the first day, 2×10^4 cells per well were seeded in flat-bottom 96 well plates. The next day, normal growth medium was replaced by serum-free medium to starve cells for 36 h. […] Medium was flicked out and cells were fixed with 4% formaldehyde in PBS (pH 7.5) for 30 min at room temperature. Formaldehyde solution was removed and cells were washed twice with wash buffer (PBS, 0.1% Tween 20). Cells were quenched with 1% H2O2, 0.1% NaN3 in wash buffer and incubated for 20 min at room temperature. Afterwards, the quenching solution was removed, and cells were washed twice with wash buffer and blocked with PBS, 0.5% BSA for 4 h at 4° C. Anti-phospho-p42/p44 MAP Kinase (Thr202/Tyr204) primary antibody (polyclonal rabbit; Cell Signaling #9101) diluted 1:500 in PBS, 0.5% BSA, 5 mM EDTA was added over night at 4° C. On day 4, the antibody solution was removed and the plate was washed 3× with wash buffer. […] Tetramethylbenzidine (TMB, Calbiochem) was added and monitored at 620 nm.

C-8161 melanoma cells = assay: Soft agar colony formation assay, combination with cisplatin; assay type: cell-based, human
Procedure: Soft agar assays were conducted in order to investigate the ability of anti-Axl antibodies of the invention to inhibit anchorage-independent cell growth either alone or in combination with chemotherapeutic agents. The soft agar colony formation assay is a standard in vitro assay to test for transformed cells, as only transformed cells are able to grow in soft agar.
In brief, 750 C-8161 melanoma cells either remained untreated or were pre-incubated with the antagonistic rat anti-Axl antibody 11B7 at 15 μg/ml in IMDM medium (Gibco) for 30 min at 37° C. Subsequently, cells were combined with Difco noble agar solution resulting in 50 μl of top agar cell suspension at concentrations of Agar, FCS, and 11B7 of 0.35%, 0.2%, and 7.5 μg/ml, respectively. This cell suspension was plated on top of 50 μl of a 0.7% agarose bottom layer containing 20% FCS, and was finally covered with another 50 μl of a feeding layer solution that contains 0.2% FCS as well as cisplatin in according concentrations. In the whole of 150 μl per sample, the final concentrations of 11B7 and cisplatin were 2.5 μg/ml and 1.5 μM, 1.0 μM, 0.75 μM, 0.5 μM, or 0.25 μM, respectively. Colonies were allowed to form for 5 days and were then stained with 50 μl MTT (Sigma, 1 mg/ml in PBS) for 3 hours at 37° C. Using a Scanalyzer HTS camera system in conjunction with the HTS Bonit colony formation software (Lemnatec, Wuerselen), the effect of the antagonistic rat anti-Axl antibody 11B7 in the absence or presence of cisplatin were analyzed in triplicates.

[1] = tested on: serum-starved NIH3T3-AXL cl.7 fibroblasts; assay: Caspase-3/7 assay, Gas6-mediated anti-apoptosis; assay type: cell-based; settings: 10 μg/ml antibody, with or without 400 ng/ml Gas6, compared to isotypic control antibody
Description: Induction of apoptosis and activation of caspases can result from a variety of stimuli including growth factor withdrawal, exposure to chemotherapeutic agents or radiation, or initiation of the Fas/Apo-1 receptor-mediated cell death process. […] In the present example we examined whether rat anti-AXL antibodies of the invention interfere with Gas6-mediated anti-apoptosis of serum-starved NIH3T3-AXL cl.7 fibroblasts, and thus induce apoptosis. Apoptosis rates were thereby determined by measurement of the cellular caspase-3/7 activity. For this purpose, NIH3T3-AXL cl.7 cells were seeded at a density of 1.5×10^3 cells per well in black clear-bottom 96 well plates (100 μl/well). The day after, normal growth medium was replaced by serum-reduced medium (DMEM, 0.5% FCS) to starve cells over night for 24 h. […] The cells were washed with PBS, covered with 60 μl of DMEM, 0% FCS, 0.01% BSA, and 10 μl of the respective antibody solution were added. After 1 h incubation at 37° C., 10 μl of DMEM, 0% FCS, 0.01% BSA with or without 3.2 μg/ml mouse Gas6 (R&D Systems) were added (the final concentrations of antibody and Gas6 were 10 μg/ml and 400 ng/ml, respectively), and cells were incubated at 37° C. for another 5 h. […] Using a Victor plate reader (Perkin Elmer), the fluorescence of each well was measured at an excitation wavelength of 485 nm and an emission wavelength of 530 nm.

B1: 11B7: antagonistic rat anti-AXL monoclonal antibody, rat IgG1 (antibody, V domains shown)
VL: DIQMTQAPSSLPASLGDRVTITCRASQDIGNYLRWFQQKPGKSPRLMISGATNLAAGVPSRFSGSRSGSDYSLTISSLESEDMADYYCLQSKESPWTFGGGTKLELK
VH: EVQLQESGPGLVKPSQSLSLTCSVTGYSITSNYWGWIRKFPGDKMEWMGYITYSGSTSYNPSLKSRISITRDTSKNQFFLQLNSVTSEDTATYYCAITTFYYWGQGVMVTVSS
p42/p44 MAP-Kinase
  ligand-mediated p42/p44 MAP-Kinase activation (phosphorylation): able to reduce ligand-mediated p42/p44 MAP-Kinase activation
C-8161 melanoma cells; 2.5 μg/ml 11B7 + 0.25 to 1.5 μM cisplatin, 5 days
  soft agar colony growth, combination with cisplatin: significantly potentiated inhibitory effect of cisplatin
C-8161 melanoma cells; 2.5 μg/ml 11B7, 5 days, overall area of colonies
  inhibitory effect on soft agar colony growth, antibody alone: ~30%
[1]
  anti-apoptosis (caspase-3/7 activity): reduced Gas6-mediated anti-apoptosis
